According to publication PMC5113301 (Cell Research, 2016):

Experiments:
crystal structure = molecular target: the molecule itself; test: crystal structure
cryo-EM structure = molecular target: the molecule itself; test: cryo-EM structure

B1: seleno-methionine substituted AcrF3 (anti-CRISPR protein encoded by gene 35 from phage JBD5) (natural protein)
chain: MSNTISDRIVARSVIEAARFIQSWEDADPDSLTEDQVLAAAGFAARLHEGLQATVLQRLVDESNHEEYREFKAWEEALLNADGRVASSPFADWGWWYRIANVMLATASQNVGVTWGSRVHGRLMAIFQDKFKQRYEEQA
modifications: seleno-methionine substituted
stoichiometry N (crystal structure): 2

B2: AcrF3 (as in the PaeCas3-AcrF3 complex) (natural protein, phage JBD5)
chain: MSNTISDRIVARSVIEAARFIQSWEDADPDSLTEDQVLAAAGFAARLHEGLQATVLQRLVDESNHEEYREFKAWEEALLNADGRVASSPFADWGWWYRIANVMLATASQNVGVTWGSRVHGRLMAIFQDKFKQRYEEQA
stoichiometry N (cryo-EM structure): 2
